Assay results published in patent US20150374741A1, “METHODS FOR MAINTAINING POPULATION OF THERAPEUTIC CELLS IN TREATMENT SITE OF SUBJECT IN NEED OF CELL THERAPY” (DCB-USA LLC, priority 2013, published 2015).

Assay: In vivo HA degradation tracked by Alexa Fluor 700 fluorescent signal (IVIS) in ischemic hindlimb
Set-up: species or system mice
Settings: streptavidin alone injected into the hindlimb
Experimental: Biotinylated HA was suspended in deionized water overnight, and Alexa Fluor 700-conjugated streptavidin (Invitrogen, Grand Island, N.Y., USA) was prepared according to the manufacturer's instructions. The streptavidin and biotinylated HA were then mixed and gently agitated at 4° C. This mixture was filtered through Amicon centrifugal filter units (molecular-weight cut off 100 kDa; Millipore, Billerica, Mass., USA) to exclude extra streptavidin. The final products were freeze-dried and stored at 4° C.
hMSCs were cultured on 10-cm culture dishes and maintained at 37° C. under an atmosphere of 5% CO2 in air. A total of 4×10^6 hMSCs were mixed with 200 μl of αMEM culture medium or 1% HA and then injected into the ischemic muscles of mice. Immediately and at various intervals after the injection, the mice were imaged using a Xenogen IVIS® Spectrum device and the corresponding filter sets. The fluorescent intensity was determined by calculating the number of photons within the manually drawn ROI, and the intensity was adjusted to exclude tissue autofluorescence. […]

Substance: Alexa Fluor 700 labeled streptavidin: Alexa Fluor 700-conjugated streptavidin (Invitrogen), injected alone as label control
- time until fluorescence disappeared: ≤ 12 h
